Results: paper PMC11251522

Experiments:
Sox2 HMG (human) = Sox2 HMG (human) (UniProt P48431); experiment: fluorescence anisotropy; details: FP at 4°C, ERα: 20 mM Tris pH 7.5 (at 25°C), 100 mM NaCl, 5% glycerol, 0.01% IGEPAL, Sox2: 10 mM Tris pH 7.5 (at 25°C), 135 mM KCl, 15 mM NaCl, 0.1 mg/mL BSA …
ERα DBD-Ext (human) = experiment: fluorescence anisotropy; details: apparent, FP at 4°C, ERα: 20 mM Tris pH 7.5 (at 25°C), 100 mM NaCl, 5% glycerol, 0.01% IGEPAL, Sox2: 10 mM Tris pH 7.5 (at 25°C), 135 mM KCl, 15 mM NaCl, 0.1 mg/mL BSA …

Sequence of Sox2 HMG (human) (P48431 40-123): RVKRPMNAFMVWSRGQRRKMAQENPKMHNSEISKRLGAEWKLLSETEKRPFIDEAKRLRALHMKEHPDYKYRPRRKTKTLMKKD

Substance: NBS dsDNA (19 bp)
- Kd (Sox2 HMG (human); apparent, Hill n 0.57): 29 nM

Substance: XBP1 hRNA (37 nt)
- Kd (ERα DBD-Ext (human); Hill n 0.91): 370 nM

Substance: hRNA (43 nt)
- Kd (Sox2 HMG (human); apparent, Hill n 1.1): 53 nM

Substance: CBS dsDNA (10 bp)
- Kd (Sox2 HMG (human); printed ≤1, first (high-affinity) transition, 54% of signal): < 1 nM
- Kd (Sox2 HMG (human); second (low-affinity) transition): 420 nM

Substance: ΔERE dsDNA (15 bp, half-site)
- Kd (ERα DBD-Ext (human); Hill n 1.5, about half the ligand concentration, true Kd may be lower): 2.8 nM

Substance: ERE dsDNA (18 bp)
- Kd (ERα DBD-Ext (human); Hill n 2.1): 11 nM
